Laboratory results published in the supplement of paper PMC6757056.
± gives the standard deviation of the averaged measurements.

B1: library; a variant is named by its letters at N, in order (parent)
chain: GCUGUCACCGAGAAACUGUGAAGUAUAUCUUAAACCUGGGCACUUAAAAGAUAUAUGGAGUUAGUAGUGCAACCUGCUCGGUCUGAUGAGUCCNNNNNNGGACGAAACAGC

Experiments:
cyclic di-GMP [1] = variants of: B1; assay: normalized RNA/DNA level without ligand (relative to sTRSVctl = 100) (log10 (% of sTRSVctl)); HEK293T; ligand: cyclic di-GMP (c-di-GMP-II aptamer); higher = less ribozyme self-cleavage, higher mRNA level; conditions: reporter: mCherry (pCS4076), ligand present: no
Method in brief: (§1)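 HEK293T cells were transfected with library plasmids carrying ribozyme switches linked to an mCherry reporter, or an eGFP reporter in some ligand experiments, at 4 µg per well of a 6-well plate, with any ligand added 1 h beforehand. After 72 h, total RNA was extracted with EDTA, reverse-transcribed, amplified, barcoded and sequenced. RNA level was defined as RNA reads over DNA reads, normalized to a spiked-in non-cleaving sequence or to the top-ranked sequences. That value was multiplied by 100 and converted to log10, the top set was 25 sequences, and only sequences with ≥100 DNA reads were retained.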

cyclic di-GMP [2] = variants of: B1; assay: normalized RNA/DNA level with ligand (relative to sTRSVctl = 100) (log10 (% of sTRSVctl)); HEK293T; ligand: cyclic di-GMP (c-di-GMP-II aptamer); ligand concentration (+) RNA-Seq: 1 mM; higher = less ribozyme self-cleavage, higher mRNA level; conditions: reporter: mCherry (pCS4076), ligand present: yes
Method in brief: as §1

Variant	normalized RNA/DNA level without ligand (log10) (cyclic di-GMP [1])	normalized RNA/DNA level with ligand (log10) (cyclic di-GMP [2])
AUCCCC	1.8 ± 0.048	1.92 ± 0.099
AUCCCU	1.7543 ± 0.001	1.91 ± 0.07
AUCCCA	1.76 ± 0.024	1.86 ± 0.091
AUCCUC	1.823 ± 0.0034	1.94 ± 0.079
AUCCUU	1.74 ± 0.042	1.89 ± 0.081
AUCCUA	1.61 ± 0.041	1.78 ± 0.083
CUGAAG	1.59 ± 0.018	1.73 ± 0.03
CUGAAC	1.603 ± 0.0055	1.77 ± 0.084
GUCCUU	1.7 ± 0.019	1.87 ± 0.1
GUCCUA	1.709 ± 0.0036	1.88 ± 0.083
GUCCUC	1.75 ± 0.026	1.9 ± 0.1
GUCCAC	1.6752 ± 0.00073	1.82 ± 0.054
GUCCAG	1.76 ± 0.07	1.83 ± 0.1
GUCCAU	1.66 ± 0.054	1.83 ± 0.14
GUGAGG	1.61 ± 0.06	1.8 ± 0.093
GUGAGU	1.59 ± 0.053	1.77 ± 0.11
GUGAGC	1.51 ± 0.086	1.77 ± 0.041
GUCUAC	1.739 ± 0.0096	1.89 ± 0.14
GUCUAU	1.64 ± 0.045	1.78 ± 0.14
GUCUAA	1.56 ± 0.069	1.72 ± 0.098

Variant	normalized RNA/DNA level without ligand (log10) (cyclic di-GMP [1])	normalized RNA/DNA level with ligand (log10) (cyclic di-GMP [2])
GUCUAG	1.62 ± 0.066	1.79 ± 0.072
AUCCAU	1.65 ± 0.048	1.81 ± 0.088
AUCCAA	1.56 ± 0.053	1.73 ± 0.12
AUCCAG	1.719 ± 0.012	1.85 ± 0.13
AUCCAC	1.718 ± 0.016	1.85 ± 0.088
GUCUCU	1.714 ± 0.011	1.86 ± 0.095
GUCUCA	1.7 ± 0.035	1.83 ± 0.14
GUCUCC	1.82 ± 0.041	1.89 ± 0.15
GUCUCG	1.867 ± 0.0092	1.88 ± 0.073
UUGACG	1.77 ± 0.025	1.88 ± 0.1
UUGACU	1.75 ± 0.025	1.84 ± 0.11
UUGAGC	1.73 ± 0.025	1.86 ± 0.14
UUGAGG	1.79 ± 0.028	1.87 ± 0.14
UUGAGA	1.58 ± 0.071	1.77 ± 0.11
UUGAGU	1.7248 ± 0.00016	1.83 ± 0.15
UUCCGC	1.771 ± 0.0064	1.89 ± 0.084
UUCCGG	1.84 ± 0.045	1.93 ± 0.043
UUCCGA	1.79 ± 0.045	1.92 ± 0.12
CUCACC	1.7 ± 0.079	1.825 ± 0.013
CUCACG	1.78 ± 0.037	1.86 ± 0.16

Variant	normalized RNA/DNA level without ligand (log10) (cyclic di-GMP [1])	normalized RNA/DNA level with ligand (log10) (cyclic di-GMP [2])
CUCACU	1.57 ± 0.052	1.77 ± 0.092
CUCACA	1.66 ± 0.033	1.83 ± 0.13
AUCAGU	1.67 ± 0.065	1.82 ± 0.02
AUCAGG	1.62 ± 0.072	1.77 ± 0.12
AUCAGC	1.82 ± 0.025	1.88 ± 0.13
GUCUUU	1.7 ± 0.033	1.83 ± 0.092
GUCUUC	1.7 ± 0.015	1.87 ± 0.097
GUCUUA	1.677 ± 0.0086	1.83 ± 0.15
GUCGAU	1.59 ± 0.11	1.71 ± 0.096
GUCGAA	1.49 ± 0.068	1.65 ± 0.11
GUCGAG	1.617 ± 0.0063	1.76 ± 0.12
GUCGAC	1.5985 ± 0.0011	1.76 ± 0.16
GUCGGG	1.73 ± 0.025	1.84 ± 0.13
GUCGGC	1.65 ± 0.067	1.83 ± 0.053
GUCGGU	1.67 ± 0.039	1.83 ± 0.062
GUCUGA	1.54 ± 0.018	1.75 ± 0.11
GUCUGC	1.732 ± 0.012	1.87 ± 0.12
GUCUGG	1.68 ± 0.036	1.86 ± 0.049
